# From the DeepSol protein solubility set
# Assay: soluble on expression in E. coli; label from the status in PepcDB or PDB records
row,Sequence,soluble on expression in E. coli
1,MGSDKIHHHHHHLILNWPQSDSEHLMVSSEQMQNIEKEMFSMGMPVEALMEKVGIGISSWILDRHGLIENGAIVLVGPGHNGGDGLVVARELYMAGVDISIWCPFPLKKQLTQKHFHYAMQIGIENLERKPDSNSDLLWIEALFGLGQSRIISDEIIRLLNSKKTFSPEKLISIDVPAGLDSDNGNIVSNTSCKASSSLTLGLFKSGLIQDSAIDYVGNLERVDIGIPDKILAGFPETQPLRISFSDLSTFVWPMLSKSKSKYQRGRVLVIAGSEKYRGAASLALNGALASGVGSVSAFLPNSVSSALWITHPEVLLLGDLTAFQDGSSDFSKVLNEVDLNRFDSILLGPGLGIADEKDCFGSDLQDFKGLLVLDADAINRLSITSKGWEWLNDREGPTWLTPHLEEFKRLFPLIDCSNPLKAGIEAAKTCSSSVLLKCAHSVISDPEGKTWQIGQVNSSVARTGLGDVLAGFVSGMGASGLASDKKLDTSLLAASALMHAYAGAFSIKGSTASTICTFLGELIKKEST,not soluble
2,VVTCATDGNHGRSVAWGAQMFGCGCIIYIHRDVSEGRKVAMEAFDAEVIRITGNYDESVRQAGADAKAHGRIIVSDTSYEGYMEVPKDVALGYTVMLAETVEQLDGEIPTHVFVQGGVGGLASAVAGYFWDLWGDRRPRFVVVEPEQANCLQLSAKAGEPVVVKGDLDTLMAGLACGEVSLLAWQILSNGADDFMTLSEDAIADTMSLLAKGYKGDPAIEAGESAVPGLAAAINARAQDTFAKALNLDAQSKVLVIGTEGAT,not soluble
3,MGSDKIHHHHHHDIRPVGSVIPQTAEEYRALLARAYLNVPNDRGLACLRSDEMLVNDNEYDRNSYGDIERWNDVSPFPGTSQFTWSNFYNVLFIANQVIESQKEITEGTPEVVNQLVGEAHLLRAYLHFVLVNLHGQPYTKSGALNSKSIPLKLDTDLEKTLGRNTVEEVYTSILSDIEHARELINKEKWETVFSYRFNVLSVDALQSRVSLYMGAWPKCLESAEAVLAKKSVLVDMNETPLALPNHFESVESITALEQVMGSSVNNAVWVPATFLALYQEGDKRLAAYFAAPDENGNRKSSKGGKREFSCTFRVGELYLNAAEAAANMDKLPHARMRLLELMRKRYTPEAYDKKENAVNVMDKNALISEILNERARELAFEGHRWFDLRRTTRPRMVKVLQGKTYILEQDDPRYTIPIPRDAIAANPGLAN,not soluble
4,MGSDKIHHHHHHMQMAVRWQLSGSYFENCSCDVVCPCLLSTKAQLTSRPTKGVCDVGLVFHIDTGNYGDVRLDGLSVALVAHTPGPMADGNWTAAAYIDERADDRQTEALGAIFTGAAGGPMAVLAPMIGTNLGAKKVPIDYRIDGKKRSAAIAGVMQMAVEPLPTMREDGQMWAATGHPVNPDWLGMAMGAQGSTFSDHGMSWDNSGQNGHYAPINWSGE,not soluble
5,MPTNVTAEYLAAEEEYRNAKTIPEKIRALEKMYALVPKHKGTEKLRLQIKRRLAELRRELEKQRQQRKGGGYSLAVKKEGAAQIVLVGLPNVGKSELLRALTGVDVESADYPFTTTEPVPAMMNYKDVQIQLVEVPGLLEGAALGKGMGPQLLAVIRNADAIAIVIDLSEDPIKQMEILLREFERAGIKVNKRRPRVEIRKTPSGGIVINGAENIKGDLSEVMRMLREEKIHSAEITVKEPVTLEEFADALDDSLVWKKAIIIANKGDSPGSKENYHKLINKYGEKFKIVPVSAKKRINLEAVKEAIYDVAEIIRVFTKSPGEEPAYPPIALKRGATVMDVAERIHKDLVKNFRYARVWGKSVKFPGQRVGPDHVLEDGDIVEIHAK,soluble
6,MEENSADIENRPVAAFRPAVSVPMPVLPQDGEVFVGPGGKKDAQKIGLGLSKLSSKRKDDIQMAKKYAMDISIKQILLRQQKQQQENQQRQQMYSQALSIMSRIYVGSISFEIREDMLRRAFDPFGPIKSINMSWDPATGHHKTFAFVEYEVPEAALLAQESMNGQMLGGRNLKVNSMMFQEMRLPQNMPQAQPIIDMVQKDAKKYFRVYVSSVHPDLSETDLKSVFEAFGEIVKCQLARAPTGRGHRGFGYLEFNNLTSQSEAIAGMNMFDLGGQYLRVGKCVTPPDALTYLQPASVSAIPASVSVACAAITAKVMAAEAAAGSSPKTPSESGGSRAASPAPRAQSPATPSSSLPTDIENKAVISSPKKEPEEIEVPPLPPSAPDVVKDEPMEIEEEEEYTIPEEKPKPVAIVPPPGLAIPSLVAPPGLIAPTEIGIVVPNPSFLAQQQQKIEEKIEEEEEARTERVKLSTSQRKKMKREKLNQMTFEEKMAQVLGQQKAVQNQRMADPVTFGALDDTVAWKDPSNEDQTSEDGKMLAIMGPGRGGDNVASMALALMDGGSSLMLANNAKAKEAAAALALEPKKKKKVKEGKKIQPKLNTAQALAAAAKAGEMSDALKNEVMNSEDASLASQEGLEIRGNDARHLLMTKLMRTNRSNVIVLRNMVTPQDIDEFLEGEIREECGKYGNVIDVVIANFASSGLVKIFVKYSDSMQVDRAKAALDGRFFGGNTVKAEAYDQILFDHADYTG,not soluble
7,MQVNIILLAAGKGQRFQSSSPNKIGCATIKQLARINDKPLIVHSIDKLQPLLKNAYVHNFFVTLGANKNAIQTVLPQDISVIASQHWAEGMGHTLAESVHSIKATSSHVLVALADQALITTEHYQELLSASKEQPNKIIATLCEGQLMAPAIFPEKYFPLLVKIQGDKGAGKLLLQHAKKADAITCEDAKIDIDTFSDLERVRQHLEYALQDNQQSSL,not soluble
8,MGSDKIHHHHHHMKDRSFDTLQEAVDVLSLTLNGPVTLEDREHRLLAYSKHSHETDSARIETIMNRQVPDRVIEGLWSSGLLQKLNQTDEPIRIPGIPAVGLGNRVAISIRQQQFVLGYIWVLELEEPLTDEQLNDLKDMVSLIRAMLIKQQETRFRRRLEREERWRHLYQGTETVAEVKRRFQAEGEPLPERGVVVQFFCERTIKEEHEQALSFISEKVKSRILVTFAMLIDGKWTVYLTDSLKKPLDEQVVKHFIDQWIRSWNDQFSYANVLAGVGQHCSQLTDVSESFHQAEKVIELKGEFAYELDKVYYFHELGFYRIIVDSVPILESETVQTLAAYDQKQGTELLQTLEAFLDVDGRNQAAAALLHVHPNTLNYRMKRIYELTGLDVKNMKDKVSLYLELKLRRWRNRVE,not soluble
9,MKCVVCGRNEAVEHGMCSSCIYDNTNVENIGPVSLVFCPKCGSIRIGKKWYRDSYGNKLLPMLLDEVKCSDVNARISGDEKGIFFDEKNKQIILPVTIKRSNMKDKIQNVAIPYSVTYISCPTCNKITGSYFEATIQLRTVSTKYDNILESVLESIEAIVEKRKKEDAESFISKVEKKPEGIDIYLGKRTDGDVVSSFVLDHFFSSIIVTKTLAGVKDGKKFFRFTYSLRILDAKEGSLEHHHHHH,not soluble
10,SWSGLLPPGLNESDAESNSEDEATLENSGLNLQEDKEDESIRKTEIIDFSTDEPKTETESNVNAYEECPSGIPIDMWNKFQELHKKHSEQKSTTSRFRGKRRKRSRKDKLKNEKELHSEPSSNETQWKELTQYFGVNDRFDPPVKRKKVEKSGLEKRIDQAVEEWNIEKAEELSNQLATRELGVKIAKAVACHNFVKAKKEVENSQAARKKKKLAWGFEAKKRWETKSNMGYM,soluble
11,EANLKPENVEIHIIDDNFFLKWNSSSESVKNVTFSADYQILGTDNWKKLSGCQHITSTKCNFSSVELENVFEKIELRIRAEEGNNTSTWYEVEPFVPFLEAQIGPPDVHLEAEDKAIILSISPPGTKDSIMWAMDRSSFRYSVVIWKNSSSLEERTETVYPEDKIYKLSPEITYCLKVKAELRLQSRVGCYSPVYCINTTERHKVPSPENIQINADNQIYVLKWDYPYENATFQAQWLRAFFKKIPGNHSDKWKQIPNCENVTSTHCVFPREVSSRGIYYVRVRASNGNGTSFWSEEKEFNTEMKTIIFPPVISVKSVTDDSLHVSVGASEESENMSVNQLYPLIYEVIFWENTSNAERKVLEKRTNFIFPDLKPLTVYCVKARALIENDRRNKGSSVSDTVCEKTKPGNTSK,not soluble
12,MEEIDDKSKFKVPSWAAKPPNGAHLDVQKGDALIQKLLIDDKKAYYFGRNNKQVDFAVEHASCSRVHALLLYHGLLQRFALIDMDSSHGTFLGNVRLRPLEVVFMDPGTQFHLGASTRKYSVRLKTEHHVEDDPTVAASDEQLDHQTSYNTAQNRRIPQLPISVEEARRKKRPRGNVAFLEEEEVINPEDVDPSVGRFRNLVTTAIISTNPNKRPGDPKRSEPPRKIVRPGRELMSAPLSSTFGPMALNAAPDLELYGKLLPEPGHHQYVTSTATEDEADDHHKKRYAKEAWPGRKPGAGIF,soluble
